Source: article PMC6423188, “HYNIC and DOMA conjugated radiolabeled bombesin analogs as receptor-targeted probes for scintigraphic detection of breast tumor” (EJNMMI Research, 2019)
Like-named read-outs stand apart in the source and are kept apart here. Where a SMILES comes first, the peptide text is derived from it.

Tests used:
in vitro = in vitro ADME; conditions: rat, serum
Procedure: In vitro radiochemical stability of ^99mTc-BN1/^99mTc-BN2/^99mTc-BN3 and ^99mTc-BN4, ^99mTc-BNS were assessed by incubating HPLC purified radiopeptides in phosphate buffer saline (PBS at pH 7.4) and freshly collected rat serum for 1–24 h at […]. Then, 90 μL of radiolabeled peptide ^99mTc-BN1/^99mTc-BN2/^99mTc-BN3/^99mTc-BN4/^99mTc-BNS solution were incubated under agitation at 37 °C with either 1.0 mL saline or fresh rat serum, and the mixtures were incubated at 37 °C for 24 h. Samples were periodically withdrawn from the mixture at 0, 2, 4, 6, 8, 12, and 24 h incubation period and analyzed by ITLC. In the case of rat serum, the aliquot was added to 100 μL 50% trifluoroacetic acid (TFA). After centrifugation (3000 rpm), the supernatant was analyzed by ITLC using acetone as the developing solvent; 10 μL of this mixture was taken at each time point, added to a strip ITLC whereby the percentage of ^99mTc-BN1/^99mTc-BN2/^99mTc-BN3/^99mTc-BN4/^99mTc-BNS was determined using gamma counter.
In vitro stability of ^99mTc-labeled bombesin analogs incubated at 37 °C with either freshly collected rat serum or normal saline were monitored up to 24 h. […] The new radiolabeled peptide conjugates were stable up to 24 h post labeling period at room temperature, with no observable degradation or transchelation to serum proteins.

In vivo biodistribution = test: In vivo biodistribution; set-up: species or system mouse; conditions: BALB/c, mouse, in vivo, total radioactivity
Procedure: (§1) All animal experiments were done according to the CSIR-IICB Animal Ethics Committee’s rules and regulation. Forty-eight hours before tumor cell implantation, an immunosuppressive drug (cyclosporine-A) was given intraperitoneal (i.p) at a concentration of 30 mg/kg/day. After that, MDA-MB-231 cells (5 × 10^6) 0.2 mL were implanted subcutaneously into the left flanks of the hind leg of BALB/c mice. Thereafter, the same dose of cyclosporine was given i.p. daily up to 2 weeks. Two weeks after inoculation of the tumor cells, when tumors reached ~ 0.5 cm in mean diameter, the tumor-bearing mice were used for biodistribution and imaging studies. Animals were monitored daily and their weights were recorded. Control group of mice received only 0.9 wt% saline. After cell implantation, the growth rate of the breast tumor followed a satisfactory pattern of spheroid shape and tumors are palpable within 2 to 4 weeks. MDA-MB-231 cell implanted mice tumor models were used for biodistribution and planar imaging studies of these radiolabeled new bombesin analogs.
(§2) In tissue biodistribution studies, tumor-bearing animals were divided into four groups and well hydrated for 1 h by intraperitoneal administration of saline (0.9%, 2 mL). Three animals per groups were used for biodistribution studies. After that, the radiolabeled new bombesin analogs (^99mTc-BN) were injected intravenously in each animal of each group consequently through the tail vein [24–27]. After 5, 30, 60, and 120 min intravenous administrations of radiolabeled analogs, the animals were sacrificed; blood, heart, lung, liver, kidney, stomach, intestine, spleen, pancreas, brain, muscle, and tumor were excised, weighed, and counted for radioactivity. The organ uptake was calculated as a percentage of the injected activity per gram of wet tissue (%IA/g). In order to evaluate whether binding of bombesin analogs to MDA-MB-231 cells in vivo is specific; blocking studies with ^99mTc-labeled bombesin analogs in tumor-bearing mice were carried out. Groups of three animals were injected 0.03 nmol of ^99mTc-labeled BN analogs (2 MBq) with 25 nmol of non-radiolabeled BN peptide. After 60 min and 120 min, mice were sacrificed and the organs were collected. Each organ was weighed and counted in a gamma counter along with activity standard and percentage of injected activity per gram (%IA/g) of tissue was calculated for each type of tissues. Counts were corrected for background radiation and physical decay of the radioactivity. The uptake was expressed in the percentage of injected activity per gram of each organ (%IA/g). Data were analyzed statistically by the t test, with the level of significance set at P < 0.05.

[1] = system: MDA-MB-231 tumor-bearing mice; test: In vivo biodistribution; set-up: species or system mouse; conditions: BALB/c, mouse, in vivo, iv
Procedure: as §1, §2

Compound: CCCC[C@H](NC(=O)[C@@H](Cc1ccc(O)cc1)NC(=O)[C@H](Cc1c[nH]cn1)NC(=O)[C@H]1CCCN1C(=O)[C@@H](NC(=O)[C@H](C)NC(=O)[C@H](Cc1c[nH]c2ccccc12)NC(=O)[C@H](CCC(N)=O)NC(=O)CCCNC(=O)CN1CCNCCNCCNCC1)C(C)C)C(N)=O [99mTc-BN4, ^99mTc-DOMA-GABA-[Pro^11Tyr^13Nle^14]-BN(7-14)NH2, metal not drawn] (HELM PEPTIDE1{[O=C(CN1CCNCCNCCNCC1)[*:2]].[O=C(CCCN[*:1])[*:2]].Q.W.A.V.[dP].H.[dY].[Nle].[am]}$$$$V2.0)
- remaining at 4 h (in vitro): 97.6 ± 0.05%
- remaining at 6 h (in vitro): 97 ± 0.18%
- remaining at 8 h (in vitro): 96.4 ± 0.2%
- remaining at 12 h (in vitro): 95.2 ± 0.05%
- remaining at 24 h (in vitro): 93.3 ± 0.02%
- tissue uptake at 5 min (In vivo biodistribution; iv, Blood uptake): 0.42 ± 0.01 %ID/g
- tissue uptake at 0.5 h (In vivo biodistribution; iv, Blood uptake): 0.81 ± 0.01 %ID/g
- tissue uptake at 1 h (In vivo biodistribution; iv, Blood uptake): 0.42 ± 0.03 %ID/g
- tissue uptake at 2 h (In vivo biodistribution; iv, Blood uptake): 0.17 %ID/g
- tissue uptake at 5 min (In vivo biodistribution; iv, Heart uptake): 0.73 ± 0.03 %ID/g
- tissue uptake at 0.5 h (In vivo biodistribution; iv, Heart uptake): 0.67 ± 0.02 %ID/g
- tissue uptake at 1 h (In vivo biodistribution; iv, Heart uptake): 0.25 ± 0.02 %ID/g
- tissue uptake at 2 h (In vivo biodistribution; iv, Heart uptake): 0.09 ± 0.04 %ID/g
- tissue uptake at 5 min (In vivo biodistribution; iv, Intestine uptake): 1.01 ± 0.06 %ID/g
- tissue uptake at 0.5 h (In vivo biodistribution; iv, Intestine uptake): 1.6 ± 0.05 %ID/g
- tissue uptake at 1 h (In vivo biodistribution; iv, Intestine uptake): 2.15 ± 0.21 %ID/g
- tissue uptake at 2 h (In vivo biodistribution; iv, Intestine uptake): 0.82 ± 0.05 %ID/g
- tissue uptake at 5 min (In vivo biodistribution; iv, Kidney uptake): 2.17 ± 0.11 %ID/g
- tissue uptake at 0.5 h (In vivo biodistribution; iv, Kidney uptake): 3.95 ± 0.21 %ID/g
- tissue uptake at 1 h (In vivo biodistribution; iv, Kidney uptake): 3.1 ± 0.17 %ID/g
- tissue uptake at 2 h (In vivo biodistribution; iv, Kidney uptake): 2.1 ± 0.13 %ID/g
- tissue uptake at 5 min (In vivo biodistribution; iv, Liver uptake): 0.4 ± 0.03 %ID/g
- tissue uptake at 0.5 h (In vivo biodistribution; iv, Liver uptake): 0.32 ± 0.13 %ID/g
- tissue uptake at 1 h (In vivo biodistribution; iv, Liver uptake): 0.28 ± 0.12 %ID/g
- tissue uptake at 2 h (In vivo biodistribution; iv, Liver uptake): 0.17 ± 0.03 %ID/g
- tissue uptake at 5 min (In vivo biodistribution; iv, Lung uptake): 1.07 ± 0.14 %ID/g
- tissue uptake at 0.5 h (In vivo biodistribution; iv, Lung uptake): 0.82 ± 0.03 %ID/g
- tissue uptake at 1 h (In vivo biodistribution; iv, Lung uptake): 0.7 ± 0.02 %ID/g
- tissue uptake at 2 h (In vivo biodistribution; iv, Lung uptake): 0.25 ± 0.11 %ID/g
- tissue uptake at 5 min (In vivo biodistribution; iv, Muscle uptake): 0.26 ± 0.02 %ID/g
- tissue uptake at 0.5 h (In vivo biodistribution; iv, Muscle uptake): 0.32 ± 0.04 %ID/g
- tissue uptake at 1 h (In vivo biodistribution; iv, Muscle uptake): 0.25 ± 0.02 %ID/g
- tissue uptake at 2 h (In vivo biodistribution; iv, Muscle uptake): 0.1 ± 0.01 %ID/g
- tissue uptake at 5 min (In vivo biodistribution; iv, Pancreas uptake): 2.88 ± 0.11 %ID/g
- tissue uptake at 0.5 h (In vivo biodistribution; iv, Pancreas uptake): 4.49 ± 0.03 %ID/g
- tissue uptake at 1 h (In vivo biodistribution; iv, Pancreas uptake): 3.75 ± 0.06 %ID/g
- tissue uptake at 2 h (In vivo biodistribution; iv, Pancreas uptake): 1.1 ± 0.04 %ID/g
- tissue uptake at 5 min (In vivo biodistribution; iv, Spleen uptake): 0.62 ± 0.04 %ID/g
- tissue uptake at 0.5 h (In vivo biodistribution; iv, Spleen uptake): 0.56 ± 0.01 %ID/g
- tissue uptake at 1 h (In vivo biodistribution; iv, Spleen uptake): 0.24 ± 0.01 %ID/g
- tissue uptake at 2 h (In vivo biodistribution; iv, Spleen uptake): 0.17 ± 0.02 %ID/g
- tissue uptake at 5 min (In vivo biodistribution; iv, Stomach uptake): 0.47 ± 0.02 %ID/g
- tissue uptake at 0.5 h (In vivo biodistribution; iv, Stomach uptake): 0.51 ± 0.04 %ID/g
- tissue uptake at 2 h (In vivo biodistribution; iv, Stomach uptake): 0.12 ± 0.01 %ID/g
- tissue uptake at 5 min (In vivo biodistribution; iv, Tumor uptake): 1.3 ± 0.01 %ID/g
- tissue uptake at 0.5 h (In vivo biodistribution; iv, Tumor uptake): 3.32 ± 0.01 %ID/g
- tissue uptake at 1 h (In vivo biodistribution; iv, Tumor uptake): 2.85 ± 0.02 %ID/g
- tissue uptake at 2 h (In vivo biodistribution; iv, Tumor uptake): 1.31 ± 0.03 %ID/g
- tissue to tissue ratio at 5 min (In vivo biodistribution; iv, tumor/blood ratio): 3
- tissue to tissue ratio at 0.5 h (In vivo biodistribution; iv, tumor/blood ratio): 4.09
- tissue to tissue ratio at 1 h (In vivo biodistribution; iv, tumor/blood ratio): 6.78
- tissue to tissue ratio at 2 h (In vivo biodistribution; iv, tumor/blood ratio): 7.7
- tissue to tissue ratio at 5 min (In vivo biodistribution; iv, tumor/kidney ratio): 0.59
- tissue to tissue ratio at 0.5 h (In vivo biodistribution; iv, tumor/kidney ratio): 0.84
- tissue to tissue ratio at 1 h (In vivo biodistribution; iv, tumor/kidney ratio): 0.91
- tissue to tissue ratio at 2 h (In vivo biodistribution; iv, tumor/kidney ratio): 0.62
- tissue to tissue ratio at 5 min (In vivo biodistribution; iv, tumor/muscle ratio): 5
- tissue to tissue ratio at 0.5 h (In vivo biodistribution; iv, tumor/muscle ratio): 10.4
- tissue to tissue ratio at 1 h (In vivo biodistribution; iv, tumor/muscle ratio): 11.4
- tissue to tissue ratio at 2 h (In vivo biodistribution; iv, tumor/muscle ratio): 12.4
- tissue uptake at 1 h (In vivo biodistribution; 60 min p.i., blocked with excess non-radiolabeled BN peptide, MDA-MB-231 tumor, mean ± SD, n = 3, read-out: Tumor uptake): 0.66 ± 0.2 %ID/g
- tissue uptake at 1 h (In vivo biodistribution; 60 min p.i., blocked with excess non-radiolabeled BN peptide, mean ± SD, n = 3, read-out: Blood uptake): 0.29 ± 0.01 %ID/g
- tissue uptake at 1 h (In vivo biodistribution; 60 min p.i., blocked with excess non-radiolabeled BN peptide, mean ± SD, n = 3, read-out: Heart uptake): 0.27 ± 0.11 %ID/g
- tissue uptake at 1 h (In vivo biodistribution; 60 min p.i., blocked with excess non-radiolabeled BN peptide, mean ± SD, n = 3, read-out: Intestine uptake): 1.66 ± 0.23 %ID/g
- tissue uptake at 1 h (In vivo biodistribution; 60 min p.i., blocked with excess non-radiolabeled BN peptide, mean ± SD, n = 3, read-out: Kidney uptake): 3.18 ± 0.2 %ID/g
- tissue uptake at 1 h (In vivo biodistribution; Lung uptake): 0.78 ± 0.02 %ID/g
- tissue uptake at 1 h (In vivo biodistribution; Muscle uptake): 0.13 ± 0.1 %ID/g
- tissue uptake at 1 h (In vivo biodistribution; Spleen uptake): 0.26 ± 0.03 %ID/g
- tissue uptake at 1 h (In vivo biodistribution; Stomach uptake): 0.63 ± 0.1 %ID/g
- Liver uptake ([1]; 0.5 h): 0.52 ± 0.13 %IA/g
- Stomach uptake ([1]; 0.5 h): 0.91 ± 0.04 %IA/g
- Pancreas uptake ([1]; 1 h): 1.98 ± 0.02 %IA/g
- Stomach uptake ([1]; 2 h): 0.20 ± 0.01 %IA/g
